# According to article PMC9942873 (Immunity, 2023):
# Substitutions are numbered along the chain they refer to.
# B1: RUPA-122 (antibody, V domains shown)
# VH: QITLKESGPTLVKPTQTLMLTCSVSGFSLSNNGVAVGWVRQPPGKALEWLALIYWNDDSFYRPSLKSRLTINKDTSKNQVVLTMTNVAPVDTATYFCARTMKKITMIRGVPYEGGVQGFDPWGPGILVTVSS
# VL: DIQMTQSPSSLSASVGDRVTITCRASQGIRDDLAWYQQKPGKAPERLIYAASSLQSGVPSRFSGSGYGTEFTLTISSLQPEDFATYYCQQYSGYFTFGGGTKVEIN
# notes: human IgG1; source: recombinant human IgG1, 293T (Protein A purified) or GenScript
# B2: RUPA-156 (antibody, V domains shown)
# VH: EVQLVESGGGLVQPGGSLRLSCVVSGFTFSRYSMYWVRQAPGKGPEWVSYIDSTGTTIYYADSVKGRFTISRDNAKSSLSLQMSSLRDDDRGVYYCARDGRKDSGSFLDHWGQGTLVTVSS
# VL: DIQMTQSPSSLSASVGDRVTITCRASQSISEWLAWYQQKPGKAPRLLIYQASSLQSGVPSRFSGSGSGTEFTLTISSLQSDDFATYYCQQFDTYWTFGQGTKVEIK
# notes: as for B1
# B3: RUPA-130 (antibody, V domains shown)
# VH: EVQLVESGGGLVKPGGSLRLSCEASGFTFRNAWMSWVRQAPGKGLEWVGRIKSYIDGGTADYAAPVKGRFSISRDDSKNTLFVQMNSLKTEDTAVYYCTTDSWAGEVGNYYFDNWGQGTLVTVSS
# VL: QSALTQPASVSGSPGQSITISCTGTSSDVGSYNFVSWYQQHPGKAPKLMIYQVTWRPSGVSNRFSGSKSGNTASLTISGLQAEDEADYYCCSYSKSSTYVFGTGTKVSVL
# notes: source: recombinant human IgG1, 293T (Protein A purified) or GenScript
# B4: RUPA-114 (antibody, V domains shown)
# VH: QVYLVQSGAEVKKPGASVKVSCKASGYDFTSYGIAWVRQAPGQGLEWMGWIGGYDDKTDYAQNLQGRFTVTTDTSTSTAYMELRSLKSDDTAVYYCARGGDRGDGLRFYYFALDVWGQGTTVTVSS
# VL: DIVLAQSPGTLSLSPGEGATLSCRASQSIYNSYLAWYQHKPGQAPRLLIYGASSRATGIPDRFSGSGSGTDFTLTISRLEPEDFAVYYCQLYGRSSWTFGQGTKVEIK
# notes: as for B1
# B5: RUPA-158 (antibody, V domains shown)
# VH: QVQLVQPGAEVKKPGASVKVSCKASGYIFSTYGISWVRQAPGQGLEWMGWTSSYSDDTNYAQKFQDRVTMTTDTSTSTAYMELRSLRSGDTAVYYCARGGDRGDGPRYYYYGLDVWGQGTTVTVSS
# VL: B4 VL with D1E, A5T, G9S, G18R, I29L, H39Q, D61G, T73S, Q90S
# notes: as for B1
# B6: RUPA-141 (antibody, V domains shown)
# VH: EVQLVESGGGLVQPGESLRLSCAASGFTFNTYWMTWVRQAPGKGLEWVANINQDGSQKNYVDSVKGRFTVSRDNAKKSLFLQMNSLRAEDTAVYYCARDNGARYSGVWYDGWYDAFDIWGRGTVLTVSS
# VL: AIQMTQSPSSLSASVGDRVTITCRASQGIKNDLGWYQQKTGKAPKLLIYAASSLQSGVPSRFSGSGSGTDFTLTISSLQPEDFATYYCLQDYNYPRTFGQGTKVEIK
# notes: as for B3
# B7: RUPA-165 (antibody, V domains shown)
# VH: VQLQQWGAGLLKPSETLSLTCLVNGGSFSDYYWSWIRQPPGRGLEWIGDVNHSGTTNHRPSLQSRVTLSLDMSKNQFSLKLTSVTAADTAVYFCARRSSGYYRGSRYTGWLDPWGQGTLVTVSS
# VL: IVMTQSPLSLSVSPGERATLSCRASQTITRNLAWYQQKPGQAPRLLIYGASTRAPDIPARFSASGSGTEFTLTISSLQSEDFALYYCQQYNNWPGLTFGGGTKVEIK
# notes: as for B1
# B8: RUPA-155 (antibody, V domains shown)
# VH: QVQLQQWGAGLLKPSETLSLTCAVEGDSLGDYYWSWIRQPPGKGLEWIGDINHSGTTNYIPSLKSRVTISVDSSRNQFSLRLNFVTAADTATYFCARRASGWYRQSRYTGWFDPWGQGTLVTVSS
# VL: EIVMTQSPATLSVSPGERATLSCRASHSINSNVAWYQQKPGQAPRLLIYGASTRATGIPARFSGSGSGTEFTLTISSLQTEDFAVYYCQQYNNWPGLSFGGGTKVEIK
# notes: as for B1
# B9: RUPA-116 (antibody, V domains shown)
# VH: QVQLQQWGAGLLKPSETLSLTCVVYGGSFSDYYWSWVRQPPGKGLEWIGEVNHSGTTNYNPSLKSRLTISVDTSKNQISLRLNSLTAADTAVYYCARRSSGYYRQSRYTGWFDPWGRGTLVTVSS
# VL: B8 VL with H27Q, N30T, V33L, T80S, E81D, V85L, S98T
# notes: as for B1
# B10: RUPA-119 (antibody, V domains shown)
# VH: QVRLQQWGAGLLKPSETLSLTCGVSGGSFSDYYWTWIRQPPGKGLEWIGDISHSANTNYNESLQSRLTISVDTSKTQFSLRLASVTAADTALYFCARRSSGWYRQSRYTGWFDPWGQGTLVTVSS
# VL: B8 VL with H27Q, N30T, V33L, T56A, S77T, T80S, S98T, K104T
# notes: as for B1
# B11: RUPA-94 (antibody, V domains shown)
# VH: QVQLRESGPGLVKPSETLSLTCSVSGGSITSSPYYWAWIRQPPGKGLEWIGSIYYSGGAYYNPSLKSRVTMSVDTSKNQFSLKVNSVTAADTAVYYCARRPNPGFWGGGYYFDYWGQGTLVTVSS
# VL: QSALTQPASVSGSPGQSITISCTGSSSDVGSYNLVSWYQHHPGKAPKLMISEVSKRPSGVSDRFSGSKSGNTASLTISGLQAEDEADYYCCSYADSSTRNYVFGTGTKVTVL
# notes: as for B1
# B12: RUPA-164 (antibody, V domains shown)
# VH: QVQLQESGPGLVKPSETLSLTCSVSGGSMTSFYWSWIRQPPGKGLEWIGYVYYNGTTNYKPSLKSRVTISVDMSKNQVSLKLSSVTAADTAVYYCARDRVVGSYYYGMDVWGQGTTVTVSS
# VL: EIVLTQPPVSLSLSPGEGATLSCRASQSVSSSYLAWYQQKPGQAPRLLMYSASRRATGIPDRFTGSGSGTDFTLTISRLEPEDFALYYCQHYGGSPRETFGQGTKVEIK
# notes: as for B1
# B13: RUPA-71 (antibody, V domains shown)
# VH: EEQLVESGGGLVKPGRSLRLSCSASGFTLGDYAVTWFRQASGKEPEWVGVIRTKDEGGTTEYAASVKGRFSILRDDSKSIAHLQMNSLKIEDTAVYYCTRNGLRWYDSSGPRGWAFDIWGPGTLVVVSS
# VL: EIVMTQSPATVSVSPGERATLSCRTSQSVSNKLAWYQQKPGQAPRLLIYGASTRATGIPARFSGSGSGTQFTLTISSLQSEDFAVYYCQQYNNWPPWTFGRGTKVEIK
# notes: as for B1
# B14: RUPA-58 (antibody, V domains shown)
# VH: QVQLVQSGPEAKKPGASVKVSCQASGYPFSGYYMHWLRQAPGQGLEWMGWMNPNSGGTKYAQRFQGRVTMTRDTSISTAHMELRGLRSDDTAVYYCARDYCTGSSCYRTDYDYWGQGTLVTVSS
# VL: DIQMTQSPSSLSASVGDRVTITCRASQIISTYLNWYQHKPGKAPKLLIKSASTLQSGVPSRFSGSGSGTDFTLTITSLQPEDFATFYCQQSYRDPITFGQGTRLEIK
# notes: as for B1
# B15: RUPA-51 (antibody, V domains shown)
# VH: B5 VH with G89D, Y108F
# VL: B4 VL with D1E, A5T, G18R, I29L, H39Q, D61G, T73S, Q90S
# notes: as for B1
# B16: RUPA-77 (antibody, V domains shown)
# VH: QITLKESGPTLVKPTQTLTLTCSFSGFSLTTAGVAVAWIRQPPGQALEWLGIIYWNDDKRYNPSFQNRLTIAKDTSKNQVVLTMTNMDPVDTGTYYCAHRILAAYNYFDPWGQGTLVTVSS
# VL: DIQMTQSPPSLSASVGDRVTITCRASQPINNFLNWYQQRPGKAPKLLIYAASRLQSGVPSRFSGSVSGTDFTLTISSLQQEDFAIYYCQQSYTSPLTFGGGTKVEIK
# notes: as for B1
# B17: RUPA-66 (antibody, V domains shown)
# VH: QVQVQQWGAGLLKPSETLSLTCAAFGGSFSDYYWSWIRQPPGKGLEWIGEINHSGTTNYNPSLKSRVIISVDTSKNQFSLKLSSVTAADTALYYCARRSSGWYRRSRYTGWFDPWGQGTLVTVSS
# VL: B8 VL with V3L, H27Q, S28T, N30T, V33L, I48M, T80S, A84G, V85I
# notes: as for B1
# B18: RUPA-75 (antibody, V domains shown)
# VH: QVQLQQWGAGLLKPSETLSLTCGVNGGSFTDYYWTWIRQPPGKGLEWIGDINHSGITNYNPSLKSRLTLSVDTSKSHFSLRLNSVTAADTALYFCARRSSGYYRGSRYTGWLDPWGQGTLVTVSS
# VL: B8 VL with R24W, H27Q, N30T, V33L, E70G, S77T, L78V, T80S, S98T
# notes: as for B1
# B19: RUPA-67 (antibody, V domains shown)
# VH: QVQLLESGPGLVKPSETLSLTCTVSGASISTSYWSWIRQPAGKGLEWIGRFHISESSNYNPSLKSRLTLSADTSKNQVSLRLSSVTAADTAVYYCARDVSPEECVSTKCYRRPGYMDVWGKGTSVTVSS
# VL: DIQMTQSPSSLSASVGDRVTITCRASQSIRNYLNWYLQKPGKAPKLLIFGASSLQSGVPSRFSGSGSGTDFTLTISSLLPEDFATYYCQQSYTTPRTFGQGTKVEIK
# notes: as for B1
# B20: RUPA-48 (antibody, V domains shown)
# VH: EVQLVESGGGLVQPGRSLRLSCAASGFSFDDHAMHWVRQAPGKGLEWVSGISWNSGNIGYADSVKGRFTISRDNAKNSLYLQMNSLRPEDTALYHCAKDGGYCSGIRCYHLRGMDVWGQGTTVTVSS
# VL: EIVLTQSPATLSLSPGERATLSCRASQSVTNYLAWYQQKPGQAPRLLIYDASNRATGIPARFSGSGSGTDFTLTISSLEPEDFGVYYCQQRSSWPPYTFGQGTKLEIK
# notes: as for B1
# Biological target: T1, recombinant full-length Pfs48/45 (Plasmodium falciparum 3D7, UniProt Q8I6T1)
# T1 sequence (Q8I6T1 28-428): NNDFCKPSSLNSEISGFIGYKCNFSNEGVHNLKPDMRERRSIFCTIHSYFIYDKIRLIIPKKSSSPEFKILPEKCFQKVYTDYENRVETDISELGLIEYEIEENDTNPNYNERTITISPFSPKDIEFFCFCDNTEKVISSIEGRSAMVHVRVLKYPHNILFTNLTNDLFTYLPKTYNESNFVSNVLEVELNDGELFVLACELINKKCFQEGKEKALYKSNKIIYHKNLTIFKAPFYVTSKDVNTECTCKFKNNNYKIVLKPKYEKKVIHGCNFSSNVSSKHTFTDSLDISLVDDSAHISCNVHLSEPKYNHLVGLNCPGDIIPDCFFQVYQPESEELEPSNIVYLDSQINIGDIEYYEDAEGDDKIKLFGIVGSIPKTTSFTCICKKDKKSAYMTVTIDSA
# Test: ELISA
# Conditions: both partners purified
row,Binder,binding result
1,B1,binds
2,B2,binds
3,B3,binds
4,B4,binds
5,B5,binds
6,B6,binds
7,B7,binds
8,B8,binds
9,B9,binds
10,B10,binds
11,B11,binds
12,B12,binds

# Biological target: T2, Pfs48/45 D1-2 (Plasmodium falciparum 3D7, UniProt Q8I6T1)
# T2 sequence (Q8I6T1 28-289): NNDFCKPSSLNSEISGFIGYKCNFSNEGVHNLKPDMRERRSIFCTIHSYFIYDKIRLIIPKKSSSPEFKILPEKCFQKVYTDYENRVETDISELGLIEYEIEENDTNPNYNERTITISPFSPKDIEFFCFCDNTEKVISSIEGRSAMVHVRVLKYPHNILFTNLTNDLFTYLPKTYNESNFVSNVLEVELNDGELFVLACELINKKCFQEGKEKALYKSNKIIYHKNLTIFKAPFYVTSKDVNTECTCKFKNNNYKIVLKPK
# Test: ELISA
# Conditions: both partners purified
row,Binder,binding result
1,B1,binds
2,B2,binds
3,B3,binds
4,B4,binds
5,B7,binds
6,B8,binds
7,B9,binds
8,B10,binds
9,B11,binds
10,B12,binds

# Biological target: T1, recombinant full-length Pfs48/45
# Test: ELISA
# Conditions: both partners purified
# Remark: another data set of the same source
row,Binder,binding result
1,B13,binds
2,B14,binds
3,B15,binds
4,B16,binds
5,B17,binds
6,B18,binds
7,B19,binds
8,B20,binds

# Biological target: T2, Pfs48/45 D1-2
# Test: ELISA
# Conditions: both partners purified
# Remark: another data set of the same source
row,Binder,binding result
1,B13,binds
2,B14,binds
3,B16,binds
4,B17,binds
5,B18,binds
